Test results reported in US20250206818A1 (AGENUS, published 2025).
Positions count from the first letter of the chain named. Names and notes keep the numbering of the source.

T1: human LAG-3 (human, UniProt P18627 23-450, limits assumed)
T1 construct: Selections used human LAG-3-Fc, human LAG-3-6His, a 30 aa LAG-3 peptide and/or cells with cynomolgus LAG-3; also called CD223
T1 sequence (looked up): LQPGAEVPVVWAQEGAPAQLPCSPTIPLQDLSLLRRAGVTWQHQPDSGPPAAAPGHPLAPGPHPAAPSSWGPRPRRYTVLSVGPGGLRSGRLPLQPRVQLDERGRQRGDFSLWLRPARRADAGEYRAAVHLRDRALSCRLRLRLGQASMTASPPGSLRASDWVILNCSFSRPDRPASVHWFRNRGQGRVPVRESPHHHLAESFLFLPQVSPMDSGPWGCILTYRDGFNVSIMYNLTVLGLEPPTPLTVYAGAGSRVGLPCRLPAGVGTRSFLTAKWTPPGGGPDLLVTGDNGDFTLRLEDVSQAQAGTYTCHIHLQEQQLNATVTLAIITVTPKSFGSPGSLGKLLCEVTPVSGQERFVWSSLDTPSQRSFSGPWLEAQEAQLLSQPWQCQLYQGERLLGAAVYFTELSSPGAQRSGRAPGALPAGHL

T2: human LAG-3 expressed on cells (human, UniProt P18627 23-525)
T2 construct: whole, on cells; also called CD223
T2 sequence (looked up): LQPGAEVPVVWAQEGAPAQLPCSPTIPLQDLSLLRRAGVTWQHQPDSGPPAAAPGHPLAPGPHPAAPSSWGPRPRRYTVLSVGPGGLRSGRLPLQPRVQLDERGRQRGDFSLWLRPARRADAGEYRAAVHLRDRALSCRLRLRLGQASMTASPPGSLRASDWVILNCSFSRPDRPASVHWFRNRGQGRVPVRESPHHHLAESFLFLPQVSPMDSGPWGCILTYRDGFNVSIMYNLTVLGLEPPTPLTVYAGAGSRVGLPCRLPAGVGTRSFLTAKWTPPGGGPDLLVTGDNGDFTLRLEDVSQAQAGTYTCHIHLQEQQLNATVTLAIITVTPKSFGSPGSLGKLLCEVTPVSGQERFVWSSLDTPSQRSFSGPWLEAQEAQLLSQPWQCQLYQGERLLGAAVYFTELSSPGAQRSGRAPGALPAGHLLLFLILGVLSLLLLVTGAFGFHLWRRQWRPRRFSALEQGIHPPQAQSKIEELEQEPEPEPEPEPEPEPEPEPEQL

T3: recombinant human LAG-3 (human, UniProt P18627 23-450, limits assumed)
T3 sequence (looked up): T1 sequence (looked up)

B1: P13G05 Fab (Fab, V domains shown)
VH: QVQLQQSGAELVKPGASVELSCTASGFNIRDTYMYWVKQRPEQGLEWIGRIDPANGNTKFDPKFQDRATMTADTSSNTAYLQLSSLTSEDTAVYYCTTYFYRYDVGGFDYWGQGTTLTVS
VL: EIVLTQSPALMAASPGEKVTITCSVSSSISSSNLHWYQQKSGTSPKLWIYGTSNLASGVPVRFSGSGSGTSYSLTISSMEAEDAATYYCQQWSSYPFTFGSGTKLEIK
notes: Murine Fab, periplasmic extract
B2: P05E01 Fab (Fab, V domains shown)
VH: DVQLVESGAELVKPGASVKLSCTASGFTIKDTYIHWVKQRPEQGLEWIGEIDPANGNTKYDPKFQGKATITADTSSNTAYLQLSSLTSEDTAVYYCATYYYRYDVGGFDYWGQGTTLTVS
VL: B1 VL with E1D, Y37F, S78N, S93N, F97L, S101A, I107L
notes: as for B1
B3: P13C06 Fab (Fab, V domains shown)
VH: B1 VH with L4M, Q5K, R30T, Y101D, R102K, F108C
VL: B1 VL with H35Y, Y37F, Q39H, E80D, D83N, S93R
notes: as for B1
B4: P15C02 Fab (Fab, V domains shown)
VH: B1 VH
VL: B1 VL with E1D, I2V, L4M, S7T
notes: as for B1
B5: P01A12 Fab (Fab, V domains shown)
VH: B1 VH with Q1E, E19K, R30K, E46D, D66G, R67K, M70I, T97S, F100Y
VL: B1 VL with E1D
notes: as for B1
B6: P13G04 Fab (Fab, V domains shown)
VH: B1 VH with Q1E, Q3K, Q5M, Q6E, V18A
VL: B1 VL with I2N, Y37F
notes: as for B1
B7: P14G01 Fab (Fab, V domains shown)
VH: B1 VH with Q5K, Q6E
VL: B1 VL with E1D, Y37F
notes: as for B1
B8: P13G01 Fab (Fab, V domains shown)
VH: B1 VH with Q1E
VL: B1 VL with E1Q
notes: as for B1
B9: P05E03 Fab (Fab, V domains shown)
VH: B1 VH with Q5K, Q6E
VL: B1 VL
notes: as for B1
B10: P13A04 Fab (Fab, V domains shown)
VH: B1 VH with S7P, E89A
VL: B1 VL with E1D, S78N
notes: as for B1
B11: P14F01 Fab (Fab, V domains shown)
VH: B1 VH
VL: B1 VL with I2N, S94T
notes: as for B1
B12: P13F06 Fab (Fab, V domains shown)
VH: B1 VH
VL: B1 VL with V3L
notes: as for B1
B13: P16D04 Fab (Fab, V domains shown)
VH: B1 VH
VL: B1 VL with I2N, F97L, S101A, I107L
notes: as for B1
B14: P13D05 Fab (Fab, V domains shown)
VH: B1 VH with S7P, E46G
VL: B1 VL with Y37F, Q38R
notes: as for B1
B15: P15G05 Fab (Fab, V domains shown)
VH: B1 VH with Q1E
VL: B1 VL with F97L, S101A, I107L
notes: as for B1
B16: P13C10 Fab (Fab, V domains shown)
VH: B1 VH
VL: B1 VL with I2N, Y37F
notes: as for B1
B17: P13B01 Fab (Fab, V domains shown)
VH: B1 VH with Q1E, E19K, R30K, M34I, Q43R, D66G, R67T, M70I
VL: B1 VL with I2N
notes: as for B1
B18: P13B02-24 (antibody, IgG1, V domains shown)
VH: QVQMKQSGAEVVKPGASVKVSCTASGFNIKDTYIHWVRQAPGQGLEWIGEIDPANDNTKYDPKFQGRVTITADTSSNTVYLQLSSLRSEDTAVYYCATYYYRYDVGGFDYWGQGTLVTVSS
VL: EILLTQSPGTLSLSPGERATLSCSVSSSISSSNLHWFQQKPGQAPRLWIYGTSNLASGVPDRFSGSGSGTSYTLTISRLEPEDFAVYYCQQWSSYPFTFGQGTKVEIK
notes: Humanized; generated as full length IgG1
B19: P13B02-33 (antibody, IgG1, V domains shown)
VH: B18 VH with V12K, I48M, S76T, N77S, L81M, Q82E, R102K
VL: B18 VL with L3V, F37Y, W48L, V59I, S71D, Y72F
notes: as for B18
B20: P13B02-35 (antibody, IgG1, V domains shown)
VH: B18 VH with M4L, V12K, I48M, S76T, N77S, L81M, Q82E, R102K
VL: B18 VL with L3V, F37Y, W48L, V59I, S71D, Y72F
notes: as for B18
B21: P13B02-37 (antibody, IgG1, V domains shown)
VH: B18 VH with V12K, I48M, L81M, Q82E, R102K
VL: B18 VL with L3V, F37Y, W48L, V59I, S71D, Y72F
notes: as for B18
B22: P13B02-29 (antibody, IgG1, V domains shown)
VH: B18 VH with M4L, K5V, V12K, I48M, S76T, N77S, L81M, Q82E, R102K
VL: B18 VL with L3V, F37Y, W48L, V59I, S71D, Y72F
notes: as for B18
B23: P13B02-30 (antibody, V domains shown)
VH: B18 VH with K5V, V12K, T23K, I48M, S76T, N77S, L81M, Q82E, R102K
VL: B18 VL with L3V, F37Y, W48L, V59I, S71D, Y72F
notes: Humanized full length IgG1; made in three versions (G1m17; G1m17 N297A; G1m3 N297A)
B24: P13B02-32 (antibody, IgG1, V domains shown)
VH: B18 VH with V12K, T23K, I48M, S76T, N77S, L81M, Q82E, R102K
VL: B18 VL with L3V, F37Y, W48L, V59I, S71D, Y72F
notes: as for B18
B25: P13B02-36 (antibody, IgG1, V domains shown)
VH: B18 VH with M4L, K5V, V12K, T23K, I48M, L81M, Q82E, R102K
VL: B18 VL with L3V, F37Y, W48L, V59I, S71D, Y72F
notes: as for B18
B26: P13B02-31 (antibody, IgG1, V domains shown)
VH: B18 VH with K5V, V12K, I48M, S76T, N77S, L81M, Q82E, R102K
VL: B18 VL with L3V, F37Y, W48L, V59I, S71D, Y72F
notes: as for B18
B27: P13B02-28 (antibody, IgG1, V domains shown)
VH: B18 VH with M4L, K5V, V12K, T23K, I48M, S76T, N77S, L81M, Q82E, R102K
VL: B18 VL with L3V, F37Y, W48L, V59I, S71D, Y72F
notes: as for B18
B28: P13B02-34 (antibody, IgG1, V domains shown)
VH: B18 VH with M4L, V12K, T23K, I48M, S76T, N77S, L81M, Q82E, R102K
VL: B18 VL with L3V, F37Y, W48L, V59I, S71D, Y72F
notes: as for B18

These binders were tested against T1, human LAG-3 (assay: Fab phage display selection; periplasmic extracts screened by ELISA or flow cytometry).
From the text: Anti-LAG-3 antibodies were identified by generation and selection of an immunized Fab phage display library. […] Per mouse, a Fab library was then generated by random-primed cDNA using total RNA as a template to amplify variable regions from mouse antibody genes. Heavy and kappa chain amplicons were combined and cloned into phagemid vectors. […] The 30 amino acid human LAG-3 peptide is a biotinylated peptide comprising the amino acid sequence of […] (SEQ ID NO: 199). Periplasmic extracts of selected Fab clones were then screened by ELISA or flow cytometry. Antibody sequencing and off-rate analysis were then performed on anti-LAG-3 Fabs.
B1: binds.
B2: binds.
B3: binds.
B4: binds.
B5: binds.
B6: binds.
B7: binds.
B8: binds.
B9: binds.
B10: binds.
B11: binds.
B12: binds.
B13: binds.
B14: binds.
B15: binds.
B16: binds.
B17: binds.

These binders were tested against T2, human LAG-3 expressed on cells (assay: flow cytometry, Fab periplasmic extract on Jurkat cells expressing human LAG-3 (FIGS. 1A-1C)).
Experimental: The anti-LAG-3 Fabs from periplasmic extracts were tested for binding to LAG-3-expressing cells using flow cytometry. Briefly, wild type and human LAG-3-expressing Jurkat cells were plated at 2×10⁵ cells/well in sample buffer (PBS (Gibco, Cat #10010-015)+0.5% FBS (Gibco, Cat #10270-106)) in 96-well U-bottom plates (Sarstedt). 22 μl of anti-LAG-3 Fab periplasmic extract and 83 μl of diluted anti-c-myc antibody (Gentaur, Clone #9E10, Cat #04-cmyc-9E10) were incubated for 30 minutes at room temperature. 100 μl of the periplasmic extract/anti-c-myc mixture was added to cells and then incubated for one hour on ice. Cells were washed three times and then incubated with a goat anti-mouse APC (BD Biosciences, Cat #550826) for 30 minutes on ice. Cells were washed three times and then analyzed with a FACS machine (BD Accuri6).
B1: binds.
B3: binds.
B4: binds.
B5: binds.
B6: binds.
B7: binds.
B8: binds.
B10: binds.
B11: binds.
B12: binds.
B13: binds.
B14: binds.
B15: binds.
B16: binds.
B17: binds.

Each binder was assayed against T3, recombinant human LAG-3 (assay: surface plasmon resonance (data not shown)).
B18: binds.
B19: binds.
B20: binds.
B21: binds.
B22: binds.
B23: binds.
B24: binds.
B25: binds.
B26: binds.
B27: binds.
B28: binds.
